Experiment: whole-cell patch clamp, AITC amplitude and rectification
Details: glycan lost; control: vehicle-treated (untreated) cells

B1: TRPA1: tunicamycin 5 μg/ml, 24 h (protein)
parent chain: MKRSLRKMWRPGEKKEPQGVVYEDVPDDTEDFKESLKVVFEGSAYGLQNFNKQKKLKRCDDMDTFFLHYAAAEGQIELMEKITRDSSLEVLHEMDDYGNTPLHCAVEKNQIESVKFLLSRGANPNLRNFNMMAPLHIAVQGMNNEVMKVLLEHRTIDVNLEGENGNTAVIIACTTNNSEALQILLKKGAKPCKSNKWGCFPIHQAAFSGSKECMEIILRFGEEHGYSRQLHINFMNNGKATPLHLAVQNGDLEMIKMCLDNGAQIDPVEKGRCTAIHFAATQGATEIVKLMISSYSGSVDIVNTTDGCHETMLHRASLFDHHELADYLISVGADINKIDSEGRSPLILATASASWNIVNLLLSKGAQVDIKDNFGRNFLHLTVQQPYGLKNLRPEFMQMQQIKELVMDEDNDGCTPLHYACRQGGPGSVNNLLGFNVSIHSKSKDKKSPLHFAASYGRINTCQRLLQDISDTRLLNEGDLHGMTPLHLAAKNGHDKVVQLLLKKGALFLSDHNGWTALHHASMGGYTQTMKVILDTNLKCTDRLDEDGNTALHFAAREGHAKAVALLLSHNADIVLNKQQASFLHLALHNKRKEVVLTIIRSKRWDECLKIFSHNSPGNKCPITEMIEYLPECMKVLLDFCMLHSTEDKSCRDYYIEYNFKYLQCPLEFTKKTPTQDVIYEPLTALNAMVQNNRIELLNHPVCKEYLLMKWLAYGFRAHMMNLGSYCLGLIPMTILVVNIKPGMAFNSTGIINETSDHSEILDTTNSYLIKTCMILVFLSSIFGYCKEAGQIFQQKRNYFMDISNVLEWIIYTTGIIFVLPLFVEIPAHLQWQCGAIAVYFYWMNFLLYLQRFENCGIFIVMLEVILKTLLRSTVVFIFLLLAFGLSFYILLNLQDPFSSPLLSIIQTFSMMLGDINYRESFLEPYLRNELAHPVLSFAQLVSFTIFVPIVLMNLLIGLAVGDIAEVQKHASLKRIAMQVELHTSLEKKLPLWFLRKVDQKSTIVYPNKPRSGGMLFHIFCFLFCTGEIRQEIPNADKSLEMEILKQKYRLKDLTFLLEKQHELIKLIIQKMEIISETEDDDSHCSFQDRFKKEQMEQRNSRWNTVLRAVKAKTHHLEP
For B1, which “other: channel current” value is on record?
Its value is “no change”.

From publication PMC5281607
